Data on 1 molecule can be found in publication PMC6442461 (2020).

One may read the Kd as the concentration at which binding is half-saturated. High values mean lower affinity, low ones higher affinity.

The target of this assay is T1, cytochrome f soluble domain lacking the transmembrane helix (Nostoc sp. PCC 7119, UniProt Q93SW9).
T1 chain: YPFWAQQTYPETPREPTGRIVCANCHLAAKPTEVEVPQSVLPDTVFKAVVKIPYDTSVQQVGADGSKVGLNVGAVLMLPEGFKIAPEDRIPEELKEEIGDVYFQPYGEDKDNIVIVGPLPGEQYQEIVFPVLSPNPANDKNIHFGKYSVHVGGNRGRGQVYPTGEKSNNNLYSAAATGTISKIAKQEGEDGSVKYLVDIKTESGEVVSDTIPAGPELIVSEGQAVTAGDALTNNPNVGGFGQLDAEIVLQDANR
The assay is described as follows: fluorescence titration.

B1: plastocyanin (protein)
chain: ETYTVKLGSDKGLLVFEPAKLTIKPGDTVEFLNNKVPPHNVVFDAALNPAKSADLAKSLSHKQLLMSPGQSTSTTFPADAPAGEYTFYCEPHRGAGMVGKITVAG
B1: the Kd came out at 70 µM.
